# Measured values: the supplement of paper PMC9112550, “Optimization of the antimicrobial peptide Bac7 by deep mutational scanning” (BMC Biology, 2022)
# Tested on: Escherichia coli TOP10
# Test: shrunken log2 fold change of peptide-encoding DNA abundance (4.5 h post-induction vs induction); higher = less antimicrobial activity (less host growth inhibition)
# Settings: time post-induction: 4.5 h; library: site-saturation at positions 5, 18, 19, 20
# 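Note: peptides expressed intracellularly from a pBAD plasmid library in pooled LB shake-flask culture, induced with 0.3% L-arabinose, DNA abundance read by NGS, three biological replicates, DESeq2 with apeglm shrinkage.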
row,Sequence,shrunken log2 fold change
1,RRIRPRPPRLPRPRPRPIHVPRP,-0.351
2,RRIRLRPPRLPRPRPRPEDLPRP,0.14
3,RRIRWRPPRLPRPRPRPNLAPRP,0.0306
4,RRIRMRPPRLPRPRPRPHKIPRP,-0.188
5,RRIRARPPRLPRPRPRPSFQPRP,-0.0185
6,RRIRNRPPRLPRPRPRPPNGPRP,-0.00827
7,RRIRIRPPRLPRPRPRPFNNPRP,-0.318
8,RRIRVRPPRLPRPRPRPHITPRP,-0.643
9,RRIRMRPPRLPRPRPRPTMMPRP,0.168
10,RRIRWRPPRLPRPRPRPFGDPRP,-0.249
11,RRIRRRPPRLPRPRPRPWYPPRP,-0.206
12,RRIRQRPPRLPRPRPRPVAEPRP,0.478
13,RRIRIRPPRLPRPRPRPRCYPRP,-0.586
14,RRIRWRPPRLPRPRPRPKEKPRP,0.0316
15,RRIRIRPPRLPRPRPRPFDEPRP,-0.288
16,RRIRSRPPRLPRPRPRPCSFPRP,-0.825
17,RRIRARPPRLPRPRPRPEDSPRP,0.32
18,RRIRWRPPRLPRPRPRPALGPRP,0.645
19,RRIRHRPPRLPRPRPRPPNDPRP,-0.471
20,RRIRDRPPRLPRPRPRPDIPPRP,0.213
21,RRIRLRPPRLPRPRPRPALLPRP,0.295
22,RRIRMRPPRLPRPRPRPDNMPRP,0.0905
23,RRIRSRPPRLPRPRPRPTDNPRP,-0.249
24,RRIRTRPPRLPRPRPRPFSEPRP,-0.0338
25,RRIRGRPPRLPRPRPRPSQLPRP,0.461

row,Sequence,shrunken log2 fold change
1,RRIRHRPPRLPRPRPRPQIQPRP,-0.0515
2,RRIRHRPPRLPRPRPRPPCRPRP,-0.0923
3,RRIRDRPPRLPRPRPRPGNWPRP,-0.0358
4,RRIRDRPPRLPRPRPRPKGFPRP,-0.073
5,RRIRMRPPRLPRPRPRPMVPPRP,-0.0114
6,RRIRSRPPRLPRPRPRPTLPPRP,0.212
7,RRIRCRPPRLPRPRPRPNTYPRP,-0.774
8,RRIRLRPPRLPRPRPRPIQKPRP,0.0625
9,RRIRFRPPRLPRPRPRPVMGPRP,0.368
10,RRIRYRPPRLPRPRPRPSKYPRP,-0.401
11,RRIRDRPPRLPRPRPRPPNNPRP,-0.261
12,RRIRPRPPRLPRPRPRPLFRPRP,0.159
13,RRIRPRPPRLPRPRPRPSHHPRP,-0.529
14,RRIRFRPPRLPRPRPRPWFNPRP,-0.897
15,RRIRGRPPRLPRPRPRPQYKPRP,-0.136
16,RRIRIRPPRLPRPRPRPKHIPRP,-0.765
17,RRIRLRPPRLPRPRPRPDRIPRP,-0.123
18,RRIRYRPPRLPRPRPRPDFMPRP,-2.08
19,RRIRPRPPRLPRPRPRPPAQPRP,0.57
20,RRIRFRPPRLPRPRPRPKDSPRP,-0.335
21,RRIRNRPPRLPRPRPRPDATPRP,0.0488
22,RRIRTRPPRLPRPRPRPFTKPRP,-0.0107
23,RRIRGRPPRLPRPRPRPECKPRP,0.841
24,RRIRRRPPRLPRPRPRPMIHPRP,-0.0319
25,RRIRPRPPRLPRPRPRPSPTPRP,0.22

row,Sequence,shrunken log2 fold change
1,RRIRIRPPRLPRPRPRPGFKPRP,-0.219
2,RRIRKRPPRLPRPRPRPLFIPRP,-0.291
3,RRIRPRPPRLPRPRPRPCLQPRP,-0.631
4,RRIRYRPPRLPRPRPRPYGTPRP,-0.0957
5,RRIRERPPRLPRPRPRPDYIPRP,-0.0061
6,RRIRTRPPRLPRPRPRPQCAPRP,0.151
7,RRIRGRPPRLPRPRPRPGQYPRP,-0.0691
8,RRIRHRPPRLPRPRPRPHGTPRP,-0.0524
9,RRIRPRPPRLPRPRPRPSDQPRP,0.029
10,RRIRVRPPRLPRPRPRPNLVPRP,-0.2
11,RRIRSRPPRLPRPRPRPDWFPRP,0.0986
12,RRIRMRPPRLPRPRPRPAQMPRP,-0.0763
13,RRIRGRPPRLPRPRPRPMAGPRP,0.0763
14,RRIRCRPPRLPRPRPRPKNMPRP,-0.727
15,RRIRYRPPRLPRPRPRPDALPRP,-0.212
16,RRIRYRPPRLPRPRPRPNPDPRP,-0.407
17,RRIRGRPPRLPRPRPRPQHCPRP,0.0523
18,RRIRQRPPRLPRPRPRPGRMPRP,0.0366
19,RRIRTRPPRLPRPRPRPHTLPRP,-0.792
20,RRIRYRPPRLPRPRPRPNRSPRP,-0.496
21,RRIRIRPPRLPRPRPRPNCRPRP,-0.0156
22,RRIRSRPPRLPRPRPRPEVFPRP,0.0779
23,RRIRSRPPRLPRPRPRPPCFPRP,-0.0133
24,RRIRARPPRLPRPRPRPQYPPRP,-0.414
25,RRIRARPPRLPRPRPRPKVMPRP,0.176
